Experimental data taken from patent US20250042994A1 (HAINAN SIMCERE ZAIMING PHARMACEUTICAL, published 2025).
One block for each binder: values may come before it.

Experiments:
[1] = molecular target: T1, human CD19 exon1-3-His tag protein (human, UniProt P15391 20-186, limits assumed); test: ELISA on coated human CD19 exon 1-3-His
T1 construct: membrane-distal part of the extracellular region, made in HEK293E cells; not shown: His tag
T1 sequence (looked up): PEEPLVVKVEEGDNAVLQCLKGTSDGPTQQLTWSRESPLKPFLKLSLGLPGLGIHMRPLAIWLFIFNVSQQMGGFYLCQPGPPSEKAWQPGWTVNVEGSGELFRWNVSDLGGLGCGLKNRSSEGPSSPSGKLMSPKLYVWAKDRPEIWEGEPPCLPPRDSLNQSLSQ

monkey CD19-His protein = molecular target: T2, monkey CD19-His protein (monkey); test: SPR Biacore, method of example 7.1, monkey CD19-His
T2 construct: bought protein; also called monkey CD19 protein
Procedure: A sample buffer and a running buffer were HBS-EP+ (10 mM HEPES, 150 mM NaCl, 3 mM EDTA and 0.05% surfactant P20) (GE Healthcare; BR-1006-69). The flow-through cell was set to 25° C. The sample block was set to 16° C. Both were pretreated with the running buffer. In each cycle, an antibody to be detected was first captured with a Protein A chip, and then a single concentration of CD19 antigen protein was injected. The binding and dissociation processes of the antibody and the antigen protein were recorded, and finally Glycine pH 1.5 (GE Healthcare; BR-1003-54) was used to complete chip regeneration. The binding was measured by injecting different concentrations of recombinant human CD19-His proteins in a solution for 240 s with a flow rate of 30 μl/min. The concentration started from 200 nM (see the detailed results for the actual concentration in the test) and was diluted at 1:1, making a total of 5 concentrations. The dissociation phase was monitored for up to 600 s and was triggered by switching from sample solution to running buffer. The surface was regenerated by washing with a 10 mM glycine solution (pH 1.5) for 30 s at a flow rate of 30 μl/min. Bulk refractive index difference was corrected by subtracting the response obtained from the goat anti-human Fc surface. Blank injection was also subtracted (=double reference). For calculation of apparent KD and other kinetic parameters, Langmuir 1:1 model was used.
According to the method in example 7.1, the affinity of the chimeric antibodies to monkey CD19 (ACROBiosystems, catalog number: 90051-C08H) protein was determined.

Human CD19-his protein = molecular target: T3, Human CD19-his protein (human, UniProt P15391 20-291); test: SPR Biacore, Ab captured on Protein A, CD19-His analyte
T3 construct: bought protein; also called recombinant human CD19-His; CD19 full-length protein; not shown: His tag
T3 sequence (looked up): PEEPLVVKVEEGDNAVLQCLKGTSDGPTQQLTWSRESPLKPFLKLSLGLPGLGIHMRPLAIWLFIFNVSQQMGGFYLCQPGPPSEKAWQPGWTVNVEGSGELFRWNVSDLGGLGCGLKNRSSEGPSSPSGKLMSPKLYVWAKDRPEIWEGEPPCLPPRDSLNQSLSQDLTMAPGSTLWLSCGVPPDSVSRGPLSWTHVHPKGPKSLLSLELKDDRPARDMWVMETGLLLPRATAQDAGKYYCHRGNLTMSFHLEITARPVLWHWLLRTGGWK
Summary of the method: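 Apparent KD came from a Langmuir 1:1 fit of double-referenced sensorgrams. Recombinant human CD19-His analyte (top 200 nM, 1:1 serial dilution, 5 concentrations) flowed over Protein A-captured antibody for 240 s at 30 μl/min, then buffer for up to 600 s. Running buffer HBS-EP+ at 25 °C; regeneration with 10 mM glycine pH 1.5.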

human CD19 on Raji cells = molecular target: T4, human CD19 on Raji cells (human, UniProt P15391 20-556); test: FACS on Raji cells
T4 construct: whole, on cells
T4 sequence (looked up): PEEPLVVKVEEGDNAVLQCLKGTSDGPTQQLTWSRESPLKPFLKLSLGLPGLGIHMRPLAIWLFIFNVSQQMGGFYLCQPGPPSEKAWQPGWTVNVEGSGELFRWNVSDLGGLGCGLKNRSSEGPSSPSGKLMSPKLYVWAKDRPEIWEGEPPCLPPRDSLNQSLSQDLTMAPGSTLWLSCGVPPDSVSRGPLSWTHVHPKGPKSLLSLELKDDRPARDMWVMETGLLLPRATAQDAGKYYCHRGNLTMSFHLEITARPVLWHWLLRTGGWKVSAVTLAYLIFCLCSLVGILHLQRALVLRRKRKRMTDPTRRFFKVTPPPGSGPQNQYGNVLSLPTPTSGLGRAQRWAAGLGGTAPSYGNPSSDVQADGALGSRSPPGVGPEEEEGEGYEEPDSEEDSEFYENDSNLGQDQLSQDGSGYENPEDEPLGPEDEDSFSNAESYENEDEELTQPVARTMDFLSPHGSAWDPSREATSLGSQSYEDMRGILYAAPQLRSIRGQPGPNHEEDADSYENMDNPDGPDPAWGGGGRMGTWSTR

[2] = molecular target: T5, human CD19 on CHO-K1-human CD19 cells (human, UniProt P15391 20-556); test: FACS on CHO-K1-human CD19 cells
T5 construct: whole, on cells; also called CHO-K1-human CD19-2C8
T5 sequence (looked up): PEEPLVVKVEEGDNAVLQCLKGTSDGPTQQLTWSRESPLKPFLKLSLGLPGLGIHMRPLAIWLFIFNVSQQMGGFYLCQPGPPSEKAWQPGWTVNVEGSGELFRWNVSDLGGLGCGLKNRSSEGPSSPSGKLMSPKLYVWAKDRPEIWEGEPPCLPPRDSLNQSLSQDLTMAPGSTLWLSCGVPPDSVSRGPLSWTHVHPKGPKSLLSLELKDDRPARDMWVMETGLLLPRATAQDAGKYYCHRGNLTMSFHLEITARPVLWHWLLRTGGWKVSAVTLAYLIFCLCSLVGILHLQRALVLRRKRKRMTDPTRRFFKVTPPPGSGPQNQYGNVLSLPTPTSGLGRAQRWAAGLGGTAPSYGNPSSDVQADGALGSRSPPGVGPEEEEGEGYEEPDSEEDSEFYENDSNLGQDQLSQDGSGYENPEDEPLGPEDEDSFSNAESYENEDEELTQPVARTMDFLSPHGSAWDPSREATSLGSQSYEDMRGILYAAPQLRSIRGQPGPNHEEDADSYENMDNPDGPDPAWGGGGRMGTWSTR

monkey CD19 protein [3] = molecular target: T6, monkey CD19 protein (monkey); test: ELISA, coated monkey CD19 protein
T6 construct: also called monkey CD19-His protein
Procedure: (§1) Human CD19-his protein (purchased from ACROBiosystems, catalog number: CD9-H52H2) was diluted with PBS to a final concentration of 4 μg/mL, and then added to a 96-well ELISA plate at 100 μl/well. The plate was sealed with a plastic film and incubated overnight at 4° C., the plate was washed 2 times with PBS the next day, and then a blocking solution [PBS+2% (w/w) BSA] was added for blocking at room temperature for 2 h. The blocking solution was poured off, and 100 nM gradiently diluted CD19 chimeric antibody or control antibody was added at 50 μl/well. After incubation at 37° C. for 2 h, the plate was washed 3 times with PBS. […] TMB substrate was added at 50 μl/well, and incubated at room temperature for 10 min, and then a stop solution (1.0 N HCl) was added at 50 μl/well. The OD450 nm values were read by an ELISA microplate reader (Multimode Plate Reader, EnSight, purchased from Perkin Elmer).
(§2) In order to detect the species cross-binding activity of the chimeric antibodies, an ELISA plate was coated with commercial murine CD19 (ACROBiosystems, catalog number: 50510-M08H) and monkey CD19 (ACROBiosystems, catalog number: 90051-C08H), respectively, and the ELISA detection was performed according to the method in example 5.1.

[4] = molecular target: T7, monkey CD19 on HEK293T-monkey CD19 cells (monkey); test: FACS on HEK293T-monkey CD19 cells
T7 construct: whole, on cells
Summary of the method: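 Antibody binding was read as MFI by flow cytometry and EC50 was taken from curve fitting. Before that, cells at 2×10⁶ cells/ml in PBS with 2% (w/w) BSA were exposed to samples for 2 h on ice and washed. Parental HEK293T cells were tested the same way.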

[5] = molecular target: T8, cynomolgus monkey CD19 on peripheral blood B cells (cynomolgus monkey (Macaca fascicularis), UniProt A0A2K5W8L9 20-557); test: FACS, cynomolgus PBMC, CD20+ B cells
T8 construct: whole, on cells; also called cynomolgus monkey B cells
T8 sequence: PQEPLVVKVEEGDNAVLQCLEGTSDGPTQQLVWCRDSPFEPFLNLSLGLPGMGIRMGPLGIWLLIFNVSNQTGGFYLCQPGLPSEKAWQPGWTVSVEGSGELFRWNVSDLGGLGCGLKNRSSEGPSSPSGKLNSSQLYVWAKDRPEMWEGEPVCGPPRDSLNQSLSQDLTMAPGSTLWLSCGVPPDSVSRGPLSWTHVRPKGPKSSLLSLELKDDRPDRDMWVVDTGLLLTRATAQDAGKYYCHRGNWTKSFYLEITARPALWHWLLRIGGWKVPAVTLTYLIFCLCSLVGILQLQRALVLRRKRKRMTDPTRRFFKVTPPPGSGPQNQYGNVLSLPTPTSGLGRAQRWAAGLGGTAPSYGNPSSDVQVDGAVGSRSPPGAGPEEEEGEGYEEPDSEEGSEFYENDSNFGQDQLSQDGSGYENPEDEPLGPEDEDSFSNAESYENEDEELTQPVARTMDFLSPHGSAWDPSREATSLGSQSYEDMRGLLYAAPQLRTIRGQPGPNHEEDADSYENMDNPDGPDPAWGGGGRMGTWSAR

monkey CD19 protein [6] = molecular target: T6, monkey CD19 protein; test: ELISA on coated monkey CD19-His
Procedure: as §1, §2

EC50 (read off the curve) [1]: ~0.03 nM
Kd (monkey CD19-His protein): 0.803 nM
koff (monkey CD19-His protein): 5.62e-05 s⁻¹
kon (monkey CD19-His protein): 70000 M⁻¹ s⁻¹
Kd (Human CD19-his protein): 1.99 nM
koff (Human CD19-his protein): 0.000138 s⁻¹
kon (Human CD19-his protein): 69300 M⁻¹ s⁻¹
B1: F3.124.7 (antibody, human IgG1, V domains shown)
VH: EVQLQQSGPVLVKPGASVKMSCKASGYTFTDYYMNWVKQRHGKSLEWIGISNPYNGGTSYNQKFKDKATLTVDKSSSTAYMELNSLTSEDSAVYYCAREGGTAQPTSGMDYWGQGTSVTVSS
VL: NIMMTQSPSSLAVSAGEKVTMSCKSSQSVLYSSNQKNYLAWYQQKPGQSPKLLIYWASTRESGVPDRFTGSGSGTDFTLTISSVQPEDPAVYYCHQYRSSYTFGGGTKLEIK
notes: human-murine chimeric antibody, human IgG1 constant

EC50 (human CD19 on Raji cells): 8.38 nM
Maximum mean fluorescence intensity (human CD19 on Raji cells): 25900
EC50 [2]: 18 nM
Maximum mean fluorescence intensity [2]: 3380
OD450 at 0.0001 nM (monkey CD19 protein [3]): 0.07 OD450
OD450 at 0.001 nM (monkey CD19 protein [3]): 0.1 OD450
OD450 at 0.01 nM (monkey CD19 protein [3]): 0.24 OD450
OD450 at 0.10 nM (monkey CD19 protein [3]): 1.11 OD450
OD450 at 1.00 nM (monkey CD19 protein [3]): 2.05 OD450
OD450 at 10 nM (monkey CD19 protein [3]): 2.4 OD450
OD450 at 100 nM (monkey CD19 protein [3]): 2.75 OD450
EC50 [4]: 9.64 nM
Maximum mean fluorescence intensity [4]: 156000
Proportion of chimeric antibody positive cells to B cells (%) at 1 nM [5]: 6%
Proportion of chimeric antibody positive cells to B cells (%) at 10 nM [5]: 25%
Proportion of chimeric antibody positive cells to B cells (%) at 100 nM [5]: 79%
EC50 (read off the curve) (monkey CD19 protein [6]): ~0.2 nM
B2: F3.118.14 (antibody, human IgG1, V domains shown)
VH: QVQLQQSGAELVRPGASVTLSCKASGYTFPDYEIHWVKQTPVHGLEWIGAIDPETGGIGYNQKFTGKAMLTADKSSSTAYMELRSLTSEDSAVYFCTRNYGSRWGQGSTLTVSS
VL: not shown
notes: human-murine chimeric antibody, human IgG1

EC50 (read off the curve) [1]: ~0.3 nM
Kd (monkey CD19-His protein): 0.00583 nM
koff (monkey CD19-His protein): 9.72e-08 s⁻¹
kon (monkey CD19-His protein): 16700 M⁻¹ s⁻¹
Kd (Human CD19-his protein): 6.05 nM
koff (Human CD19-his protein): 0.000326 s⁻¹
kon (Human CD19-his protein): 53900 M⁻¹ s⁻¹
B3: F3.118.14 (antibody, human IgG1, V domains shown)
VH: QVQLQQSGAELVRPGASVTLSCKASGYTFPDYEIHWVKQTPVHGLEWIGAIDPETGGIGYNQKFTGKAMLTADKSSSTAYMELRSLTSEDSAVYFCTRNYGSRWGQGSTLTVSS
VL: not shown
notes: as for B1
